Laboratory results from publication PMC2532717 (Nucleic Acids Research, 2008).
Residue numbers refer to the chain shown, from its start.

B1: RecUK56A (enzyme, B. subtilis)
chain: MIRYPNGKTFQPKHSVSSQNSQKRAPSYSNRGMTLEDDLNETNKYYLTNQIAVIHAKPTPVQIVNVHYPKRSAAVIKEAYFKQSSTTDYNGIYKGRYIDFEAKETKNKTSFPLQNFHDHQIEHMKQVKAQDGICFVIISAFDQVYFLEADKLFYFWDRKEKNGRKSIRKDELEETAYPISLGYAPRIDYISIIEQLYFSPSSGAKG
B2: RecUR71A (enzyme, B. subtilis)
chain: B1 chain with A56K, R71A
B3: RecA (natural protein, B. subtilis, UniProt P16971 1-348, looked up)
chain: MSDRQAALDMALKQIEKQFGKGSIMKLGEKTDTRISTVPSGSLALDTALGIGGYPRGRIIEVYGPESSGKTTVALHAIAEVQQQGGQAAFIDAEHALDPVYAQKLGVNIEELLLSQPDTGEQALEIAEALVRSGAVDIVVVDSVAALVPKAEIEGDMGDSHVGLQARLMSQALRKLSGAINKSKTIAIFINQIREKVGVMFGNPETTPGGRALKFYSSVRLEVRRAEQLKQGNDVMGNKTKIKVVKNKVAPPFRTAEVDIMYGEGISKEGEIIDLGTELDIVQKSGSWYSYEEERLGQGRENAKQFLKENKDIMLMIQEQIREHYGLDNNGVVQQQAEETQEELEFEE

Molecular target: the molecule itself
Assay: cross-linking

Protein | stoichiometry N | binding result
B1 | 2 | 
B2 | 2 | 
B3 |  | binds
